# Reference: patent CN112646041A
# Biological target: 人CD64 ECD-his抗原(SINO BIOLOGICAL，货号:10256-H08H) (human) (UniProt P12314)
# Assay: ELISA, antibody coated at 67 to 0.0043 nM, CD64 ECD-his at 1 μg/mL
substance,measurement,value
hIgG1对照组(SIGMA，货号I4506) (antibody),EC50,1.32 nM
